Test results taken from patent US10047131B2, “Peptides and combination of peptides for use in immunotherapy against ovarian cancer and other cancers” (immatics biotechnologies GmbH, priority 2015, dated 2018).

The substances below were run against HLA-A*02:01 (Homo sapiens, UniProt P04439, D140Y/D185E/D98H/E176V/E277Q/G131W/G231S/I119V/I121R/I166T/I218V/L300P/L318F/N151K/N90K/P208A/P217A/Q86G/Q94H/R138H/R169H/T345S) (assay: MHC binding assay (UV-ligand exchange, ELISA of exchange yield)). Settings: binding to HLA-A*02:01, UV-ligand exchange.
In short: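 Peptide–MHC complexes made by UV-ligand exchange, where a UV-cleavable peptide is replaced by the test peptide. Exchange yield measured by ELISA: complexes diluted 100-fold on streptavidin-coated plates, stabilized complexes detected with HRP anti-β2m, TMB read at 450 nm.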

Row | Substance | Peptide exchange (MHC class I binding score, peptide exchange yield)
1 | 528 (SVAEGRALMSV; listed as Homo sapiens) [compound 528] | “+++” (≥50 = +++)
2 | 529 (LLADELITV; listed as Homo sapiens) [compound 529] | “+++” (≥50 = +++)
3 | 530 (VMYADIGGMDI; listed as Homo sapiens) [compound 530] | “+++” (≥50 = +++)
4 | 531 (YTLPIASSIRL; listed as Homo sapiens) [compound 531] | “+++” (≥50 = +++)
5 | 541 (SMLEPVPEL; listed as Homo sapiens) [compound 541] | “+++” (≥50 = +++)
6 | 542 (RVWDISTVSSV; listed as Homo sapiens) [compound 542] | “+++” (≥50 = +++)
7 | 543 (GLLPTPITQQASL; listed as Homo sapiens) [compound 543] | “+++” (≥50 = +++)
8 | 545 (LLADLLHNV; listed as Homo sapiens) [compound 545] | “+++” (≥50 = +++)
9 | 548 (ALWENPESGEL; listed as Homo sapiens) [compound 548] | “++” (≥20% = ++)
10 | 549 (AMLENASDIKL; listed as Homo sapiens) [compound 549] | “+++” (≥50 = +++)
11 | 550 (FLYDEIEAEVNL; listed as Homo sapiens) [compound 550] | “+++” (≥50 = +++)
12 | 552 (GLLDLPFRVGV; listed as Homo sapiens) [compound 552] | “++++” (≥75% = ++++)
13 | 553 (SLLNQDLHWSL; listed as Homo sapiens) [compound 553] | “++++” (≥75% = ++++)
14 | 554 (LLMPSSEDLLL; listed as Homo sapiens) [compound 554] | “+++” (≥50 = +++)
15 | 555 (YVLEGLKSV; listed as Homo sapiens) [compound 555] | “+++” (≥50 = +++)
16 | 557 (KLYDDMIRL; listed as Homo sapiens) [compound 557] | “+++” (≥50 = +++)
17 | 558 (GLLENIPRV; listed as Homo sapiens) [compound 558] | “+++” (≥50 = +++)
18 | 559 (VTVPPGPSL; listed as Homo sapiens) [compound 559] | “++” (≥20% = ++)
19 | 560 (ALWDIETGQQTTT; listed as Homo sapiens) [compound 560] | “+++” (≥50 = +++)

Further lines, results first:

Row | Peptide exchange (MHC class I binding score, peptide exchange yield) | Substance
20 | “+++” (≥50 = +++) | 537 (TLAPGEVLRSV; listed as Homo sapiens) [compound 537]
21 | “++” (≥20% = ++) | 538 (LLLAHIIAL; listed as Homo sapiens) [compound 538]
22 | “+++” (≥50 = +++) | 539 (ALFDAQAQV; listed as Homo sapiens) [compound 539]
23 | “+++” (≥50 = +++) | 544 (LLWDVPAPSL; listed as Homo sapiens) [compound 544]
24 | “+++” (≥50 = +++) | 546 (VMIAGKVAVV; listed as Homo sapiens) [compound 546]
25 | “+++” (≥50 = +++) | 547 (TLDITPHTV; listed as Homo sapiens) [compound 547]
26 | “+++” (≥50 = +++) | 551 (KLYESLLPFA; listed as Homo sapiens) [compound 551]
27 | “+++” (≥50 = +++) | 556 (FLTDLEDLTL; listed as Homo sapiens) [compound 556]
